One molecule from patent US8071348B2, “Protein tyrosine phosphatase substrate-trapping double mutant and uses thereof” (Albert Einstein College of Medicine of Yeshiva University, priority 2002, dated 2011) can be followed below.

As a reminder, the Km is the substrate concentration at which the rate is half of its maximum. For orientation: Kd means a measure of binding affinity in units of concentration.

A short description of series [1]: Kinetic constants for PTP1B-catalyzed hydrolysis of pNPP. The note with it: pNPP as substrate. It is filed as biochemical. From the text: The catalytic domain of PTP1B (residues 1 to 321) was used for in vitro study. PTP1B mutants, C215S, D181A, and Q262A, were described previously (9, 25, 26). PTP1B double mutants, D181A/C215S and C215S/Q262A, were generated by PCR reactions, according to the standard procedure of the Quick-Change™ site-directed mutagenesis kit (Stratagene), using pT7-7/PTP1B/C215S as a template. PTP1B double mutants, D181A/C215E and D181A/Q262A, were generated by similar PCR procedures, using pT7-7/PTP1B/D181A as a template. The recombinant wild-type and mutant PTP1Bs were expressed in E. coli, and purified to homogeneity as described (25, 27). Protein concentration was determined from absorbance measurement at 280 nm, using an absorbance coefficient of 1.24 for 1 mg/ml PTP1B.
PTP activity was assayed at 25° C. and pH 7.0, in a reaction mixture (0.2 ml) containing pNPP concentrations ranging from 0.2 to 5 Km. The following buffered solution was used for activity measurements: pH 7.0, 50 mM 3,3-dimethylglutarate, 1 mM EDTA; the ionic strength was 0.15 M, as adjusted by addition of NaCl. Initial rate measurements for the enzyme-catalyzed hydrolysis of pNPP were conducted as previously described (26). Michaelis-Menten kinetic parameters were determined from a direct fit of the data to the Michaelis-Menten equation, using the nonlinear regression program, KINETASYST (Intellikinetics, State College, Pa.).

Series [2] deals with T1, EGFR^988-998 peptide, DADEpYLIPQQG (Homo sapiens, UniProt P18031, D181A/Q262A).
T1 construct: The catalytic domain of PTP1B (residues 1 to 321) was used for in vitro study; made in house; host or cells: E. coli (pT7-7 plasmids)
T1 sequence (P18031 1-321 D181A/Q262A): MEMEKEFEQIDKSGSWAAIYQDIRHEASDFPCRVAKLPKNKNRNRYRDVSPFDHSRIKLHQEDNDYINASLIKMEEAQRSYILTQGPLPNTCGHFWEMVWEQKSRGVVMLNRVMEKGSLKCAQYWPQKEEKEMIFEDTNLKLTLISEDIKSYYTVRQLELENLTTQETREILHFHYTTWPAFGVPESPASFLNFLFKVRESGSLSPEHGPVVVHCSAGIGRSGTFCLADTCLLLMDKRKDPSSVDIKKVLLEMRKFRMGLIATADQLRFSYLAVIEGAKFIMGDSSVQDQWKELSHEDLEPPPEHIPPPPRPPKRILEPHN
In words: Kinetic constants for PTP1B-catalyzed hydrolysis of pTyr-containing EGFR988-998 peptide. The note with it: EGFR988-998 peptide as substrate. It is filed as biochemical. The method in brief:
(§1)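 PTP1B catalytic domain (residues 1–321), wild-type or mutant, expressed in E. coli. Continuous assay at 25° C., pH 7.0, in 50 mM 3,3-dimethylglutarate with 1 mM EDTA (ionic strength 0.15 M). Dephosphorylation followed by absorbance increase at 282 nm or fluorescence at 305 nm to obtain kcat and Km.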

Series [3] concerns EGFR^988-998 peptide, DADEpYLIPQQG. The series is described as above. It is filed as biochemical. The note with it: EGFR988-998 peptide as substrate; 25° C. and pH 7.0. Put shortly: as §1
Series [4] addresses T2, Ac-Asp-Ala-Asp-Glu-F2Pmp-Leu-NH2 (Homo sapiens, UniProt P18031, D181A/Q262A).
T2 construct: The catalytic domain of PTP1B (residues 1 to 321) was used for in vitro study; made in house; host or cells: E. coli (pT7-7 plasmids)
T2 sequence (P18031 1-321 D181A/Q262A): T1 sequence (P18031 1-321 D181A/Q262A)
In words: Isothermal titration calorimetry, binding of PTP1B and mutants to F2Pmp peptide. The following applies: ITC, pH 7.0, ionic strength 0.15 M, 25° C.; read-out: dissociation constant, Kd. As for the experimental part: (§2) FIG. 3 portrays calorimetric isothermal titration for the reaction of peptide Ac-Asp-Ala-Asp-Glu-F2Pmp-Leu-NH2 with PTP1B/D181A/Q262A. The upper graph depicts raw data for thirty 8-μl injections of the peptide (0.5 mM stock) into the isothermal cell containing 32 μM PTP1B/D181A/Q262A, at 4-min intervals and 25° C. Both the protein and the peptide were in 50 mM 3,3-dimethylglutarate buffer (I=0.15 M, pH 7.0) containing 1 mM DTT. The lower graph depicts an integration curve showing experimental points that were obtained by integration of the above peaks as plotted against the molar ratio of the peptide to PTP1B/D181A/Q262A within the reaction cell. The solid line corresponds to the best fit to the data according to the nonlinear, least-squares regression algorithm, ORIGIN (29).
(§3) All isothermal titration calorimetry experiments were performed using an MCS Isothermal Titration Calorimetry System from Microcal Inc. (Northampton, Mass.). […] The ionic strength of the buffer was adjusted to 0.15 M by addition of NaCl. Protein concentration in the calorimeter cell was 27-85 μM, while the ligand concentration in the syringe was 0.37-1 mM.
(§4) The PTP1B samples used in the isothermal titration calorimetry experiments were dialyzed completely against buffer. High-concentration stock solutions were prepared for ligands with distilled water, and adjusted to pH 7.0. Stock was diluted at least 26-fold with 50 mM 3,3-dimethylglutarate buffer before titration. Protein dilution during titration was determined by titration of buffer into the protein solution. […] The heat of ligand dilution was corrected by subtracting the average heat of injection after saturation.
(§5) The binding data were analyzed using ORIGIN software (29). Binding constant, K, and enthalpy change, ΔH, were used to calculate free energy change, ΔG, and entropy change, ΔS, according to equation [1]: −RTLnK=ΔG=ΔH−TΔS [1] where R is the gas constant and T is the absolute temperature.
A general note: Isothermal titration calorimetry measures the heat released or taken up as one component is titrated into another.

For series [5], the target named is Ac-Asp-Ala-Asp-Glu-F2Pmp-Leu-NH2. Described as above. The note with it: ITC, 25° C. and pH 7.0; data from this study. As for the experimental part: as §2, §3, §4, §5

[ ]: non-standard residue; d: D form. F2Pmp = N[C@@H](Cc1ccc(C(F)(F)P(=O)(O)O)cc1)C(=O)O

B1: PTP1B/D181A/Q262A, catalytic domain (residues 1 to 321) (enzyme, human, UniProt P18031 1-321, looked up)
chain: T1 sequence (P18031 1-321 D181A/Q262A)
notes: range 1-321; Used in vitro (ITC, kinetics); also called PTP1B substrate-trapping double mutant
Turning to B1, in series [1], the “fold decrease in Km relative to D181A” value is on record as 33 fold and the “fold decrease in kcat relative to D181A” value is recorded as 11 fold. Further, in series [1] (25° C. and pH 7.0), the Km amounted to 2.4 ± 0.5 µM and the kcat result is on record as “(2.8 ± 0.1) × 10^−3 s^−1”. For the same molecule, the “kcat, fold lower than D181A” value in series [2] came out at 24 fold. Further, in series [3], the Km came to 51 ± 4 µM and the kcat result is on record as “(2.7 ± 0.1) × 10^−3 s^−”. For the same molecule, the equilibrium dissociation constant (Kd) in series [4] worked out at 6.8 nM. In series [5], the affinity, expressed as Kd, was 6.8 ± 2.3 nM.
